# T1: human FcγRIIa(R) (human, UniProt P12318 36-217)
# T1 construct: Analyte in solution on Biacore; also called FcγRIIa type R; FcgRIIaR
# T1 chain: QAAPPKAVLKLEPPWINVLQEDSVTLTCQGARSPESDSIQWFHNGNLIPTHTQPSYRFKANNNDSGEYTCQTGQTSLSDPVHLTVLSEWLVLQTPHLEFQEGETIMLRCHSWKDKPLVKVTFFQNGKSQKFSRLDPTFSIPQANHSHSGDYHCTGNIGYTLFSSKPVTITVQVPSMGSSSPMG
# T2: human FcγRIIa(H) (human, UniProt P12318 36-217)
# T2 construct: Analyte in solution on Biacore; also called FcγRIIa type H; FcgRIIaH
# T2 sequence: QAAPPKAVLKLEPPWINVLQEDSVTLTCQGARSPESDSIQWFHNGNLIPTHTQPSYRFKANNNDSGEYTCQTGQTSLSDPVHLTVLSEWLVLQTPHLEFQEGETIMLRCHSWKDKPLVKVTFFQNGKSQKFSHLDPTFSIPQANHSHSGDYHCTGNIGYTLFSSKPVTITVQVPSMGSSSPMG
# T3: human FcγRIIb (human, UniProt P31994 43-217, limits assumed)
# T3 construct: Analyte in solution on Biacore; also called FcgRIIb; hFcgRIIb
# T3 sequence: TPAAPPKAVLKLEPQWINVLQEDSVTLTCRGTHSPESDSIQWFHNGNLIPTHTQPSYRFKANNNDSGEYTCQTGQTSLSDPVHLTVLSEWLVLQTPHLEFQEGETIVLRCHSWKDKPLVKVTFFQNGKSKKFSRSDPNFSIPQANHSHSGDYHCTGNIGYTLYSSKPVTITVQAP
# T4: human FcγRIIb (human, UniProt P31994 43-217, limits assumed)
# T4 construct: also called FcγIIB; hFcgRIIb
# T4 sequence: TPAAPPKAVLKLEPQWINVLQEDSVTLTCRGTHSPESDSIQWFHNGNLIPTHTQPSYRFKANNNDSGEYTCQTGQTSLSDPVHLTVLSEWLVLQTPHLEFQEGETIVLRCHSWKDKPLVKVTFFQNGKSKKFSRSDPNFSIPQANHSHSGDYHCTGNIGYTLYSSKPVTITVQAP
# B1: GpH7-B3 variant I332K / GpL16-k0 (antibody, human IgG1)
# heavy: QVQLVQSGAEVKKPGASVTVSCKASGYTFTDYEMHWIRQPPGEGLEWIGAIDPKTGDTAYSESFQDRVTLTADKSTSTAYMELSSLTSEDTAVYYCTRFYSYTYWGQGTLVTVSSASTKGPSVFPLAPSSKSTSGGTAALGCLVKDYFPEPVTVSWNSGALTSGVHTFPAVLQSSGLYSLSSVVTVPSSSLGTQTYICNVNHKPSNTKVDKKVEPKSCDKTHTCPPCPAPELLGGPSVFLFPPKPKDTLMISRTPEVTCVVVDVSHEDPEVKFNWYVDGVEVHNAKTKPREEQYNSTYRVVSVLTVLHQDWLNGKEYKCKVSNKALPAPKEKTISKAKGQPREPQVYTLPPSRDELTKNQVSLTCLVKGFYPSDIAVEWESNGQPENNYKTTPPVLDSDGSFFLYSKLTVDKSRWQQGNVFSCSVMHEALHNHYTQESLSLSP
# light: DIVMTQSPLSLPVTPGEPASISCQASESLVHSNRNTYLHWYLQKPGQSPQLLIYKVSNRFSGVPDRFSGSGSGTDFTLKISRVEAEDVGVYYCSQNTHVPPTFGQGTKVEIE
# notes: Anti-glypican-3 IgG1; constant region B3 = G1d with K439E
# B2: antibody containing VH3-IgG1-F1009 for the heavy chain and L(WT)-CK for the light chain (antibody)
# heavy: QVQLQESGPGLVKPSETLSLTCAVSGHSISHDHAWSWVRQPPGEGLEWIGFISYSGITNYNPSLQGRVTISRDNSKNTLYLQMNSLRAEDTAVYYCARSLARTTAMDYWGEGTLVTVSSASTKGPSVFPLAPSSKSTSGGTAALGCLVKDYFPEPVTVSWNSGALTSGVHTFPAVLQSSGLYSLSSVVTVPSSSLGTQTYICNVNHKPSNTKVDKKVEPKSCDKTHTCPPCPAPELRGGPKVFLFPPKPKDVLYISRTPEVTCVVVDVSHEDPEVKFNWYVDGVEVHNAKTKPREEQYNSTYRVVSVLQPLHADWLNGKEYKCKVSNKALPAPIEKTISKAKGQPREPQVYTLPPSRDELTKNQVSLTCLVKGFYPSDIAVEWESNGQPENNYKTTPPVLDSDGSFFLYSKLTVDKSRWQQGNVFSCSVMHEALHYHVTQKSLSLSP
# light: not shown
# B3: antibody containing VH3-IgG1-F1315 for the heavy chain and L(WT)-CK for the light chain (antibody)
# heavy: QVQLQESGPGLVKPSETLSLTCAVSGHSISHDHAWSWVRQPPGEGLEWIGFISYSGITNYNPSLQGRVTISRDNSKNTLYLQMNSLRAEDTAVYYCARSLARTTAMDYWGEGTLVTVSSASTKGPSVFPLAPSSKSTSGGTAALGCLVKDYFPEPVTVSWNSGALTSGVHTFPAVLQSSGLYSLSSVVTVPSSSLGTQTYICNVNHKPSNTKVDKKVEPKSCDKTHTCPPCPAPELLGKPKVFLFPPKPKDTLYISRTPEVTCVVVDVSHEDPEVKFNWYVDGVEVHNAKTKPREEQYNSTYRVVSVLTVLHQDWLNGKEYKCKVSNKALPAPIEKTISKAKGQPREPQVYTLPPSRDELTKNQVSLTCLVKGFYPSDIAVEWESNGQPENNYKTTPPVLDSDGSFFLYSKLTVDKSRWQQGNVFSCSVMHEALHYHVTQKSLSLSP
# light: not shown
# B4: antibody containing VH3-IgG1-F1317 for the heavy chain and L(WT)-CK for the light chain (antibody)
# heavy: QVQLQESGPGLVKPSETLSLTCAVSGHSISHDHAWSWVRQPPGEGLEWIGFISYSGITNYNPSLQGRVTISRDNSKNTLYLQMNSLRAEDTAVYYCARSLARTTAMDYWGEGTLVTVSSASTKGPSVFPLAPSSKSTSGGTAALGCLVKDYFPEPVTVSWNSGALTSGVHTFPAVLQSSGLYSLSSVVTVPSSSLGTQTYICNVNHKPSNTKVDKKVEPKSCDKTHTCPPCPAPELLGGPKVFLFPPKPKDTLYISRTPEVTCVVVDVSHEDPEVKFNWYVDGVEVHNAKTKPREEQYNSTYRVVSVLTVLHQDWLNGKEYKCKVSNKALKAPIEKTISKAKGQPREPQVYTLPPSRDELTKNQVSLTCLVKGFYPSDIAVEWESNGQPENNYKTTPPVLDSDGSFFLYSKLTVDKSRWQQGNVFSCSVMHEALHYHVTQKSLSLSP
# light: not shown
# B5: antibody containing VH3-IgG1-F1316 for the heavy chain and L(WT)-CK for the light chain (antibody)
# heavy: QVQLQESGPGLVKPSETLSLTCAVSGHSISHDHAWSWVRQPPGEGLEWIGFISYSGITNYNPSLQGRVTISRDNSKNTLYLQMNSLRAEDTAVYYCARSLARTTAMDYWGEGTLVTVSSASTKGPSVFPLAPSSKSTSGGTAALGCLVKDYFPEPVTVSWNSGALTSGVHTFPAVLQSSGLYSLSSVVTVPSSSLGTQTYICNVNHKPSNTKVDKKVEPKSCDKTHTCPPCPAPELLGRPKVFLFPPKPKDTLYISRTPEVTCVVVDVSHEDPEVKFNWYVDGVEVHNAKTKPREEQYNSTYRVVSVLTVLHQDWLNGKEYKCKVSNKALPAPIEKTISKAKGQPREPQVYTLPPSRDELTKNQVSLTCLVKGFYPSDIAVEWESNGQPENNYKTTPPVLDSDGSFFLYSKLTVDKSRWQQGNVFSCSVMHEALHYHVTQKSLSLSP
# light: not shown
# B6: antibody containing VH3-IgG1-F1325 for the heavy chain and L(WT)-CK for the light chain (antibody)
# heavy: QVQLQESGPGLVKPSETLSLTCAVSGHSISHDHAWSWVRQPPGEGLEWIGFISYSGITNYNPSLQGRVTISRDNSKNTLYLQMNSLRAEDTAVYYCARSLARTTAMDYWGEGTLVTVSSASTKGPSVFPLAPSSKSTSGGTAALGCLVKDYFPEPVTVSWNSGALTSGVHTFPAVLQSSGLYSLSSVVTVPSSSLGTQTYICNVNHKPSNTKVDKKVEPKSCDKTHTCPPCPAPEAAGGPSVFLFPPKPKDTLYISRTPEVTCVVVDVSHEDPEVKFNWYVDGVEVHNAKTKPREEQYASTYRVVSVLTVLHQDWLNGKEYKCKVSNKALPAPIEKTISKAKGQPREPQVYTLPPSRDELTKNQVSLTCLVKGFYPSDIAVEWESNGQPENNYKTTPPVLDSDGSFFLYSKLTVDKSRWQQGNVFSCSVMHEALHYHVTQKSLSLSP
# light: not shown
# B7: antibody containing VH3-IgG1-F1318 for the heavy chain and L(WT)-CK for the light chain (antibody)
# heavy: QVQLQESGPGLVKPSETLSLTCAVSGHSISHDHAWSWVRQPPGEGLEWIGFISYSGITNYNPSLQGRVTISRDNSKNTLYLQMNSLRAEDTAVYYCARSLARTTAMDYWGEGTLVTVSSASTKGPSVFPLAPSSKSTSGGTAALGCLVKDYFPEPVTVSWNSGALTSGVHTFPAVLQSSGLYSLSSVVTVPSSSLGTQTYICNVNHKPSNTKVDKKVEPKSCDKTHTCPPCPAPELLGGPKVFLFPPKPKDTLYISRTPEVTCVVVDVSHEDPEVKFNWYVDGVEVHNAKTKPREEQYNSTYRVVSVLTVLHQDWLNGKEYKCKVSNKALRAPIEKTISKAKGQPREPQVYTLPPSRDELTKNQVSLTCLVKGFYPSDIAVEWESNGQPENNYKTTPPVLDSDGSFFLYSKLTVDKSRWQQGNVFSCSVMHEALHYHVTQKSLSLSP
# light: not shown
# B8: antibody containing VH3-IgG1-F1327 for the heavy chain and L(WT)-CK for the light chain (antibody)
# heavy: QVQLQESGPGLVKPSETLSLTCAVSGHSISHDHAWSWVRQPPGEGLEWIGFISYSGITNYNPSLQGRVTISRDNSKNTLYLQMNSLRAEDTAVYYCARSLARTTAMDYWGEGTLVTVSSASTKGPSVFPLAPSSKSTSGGTAALGCLVKDYFPEPVTVSWNSGALTSGVHTFPAVLQSSGLYSLSSVVTVPSSSLGTQTYICNVNHKPSNTKVDKKVEPKSCDKTHTCPPCPAPEAAGGPSVFLFPPKPKDVLYISRTPEVTCVVVDVSHEDPEVKFNWYVDGVEVHNAKTKPREEQYASTYRVVSVLQPLHADWLNGKEYKCKVSNKALPAPIEKTISKAKGQPREPQVYTLPPSRDELTKNQVSLTCLVKGFYPSDIAVEWESNGQPENNYKTTPPVLDSDGSFFLYSKLTVDKSRWQQGNVFSCSVMHEALHYHVTQKSLSLSP
# light: not shown
# B9: antibody containing VH3-IgG1-F1333 for the heavy chain and L(WT)-CK for the light chain (antibody)
# heavy: QVQLQESGPGLVKPSETLSLTCAVSGHSISHDHAWSWVRQPPGEGLEWIGFISYSGITNYNPSLQGRVTISRDNSKNTLYLQMNSLRAEDTAVYYCARSLARTTAMDYWGEGTLVTVSSASTKGPSVFPLAPSSKSTSGGTAALGCLVKDYFPEPVTVSWNSGALTSGVHTFPAVLQSSGLYSLSSVVTVPSSSLGTQTYICNVNHKPSNTKVDKKVEPKSCDKTHTCPPCPAPELRRGPKVFLFPPKPKDTLYISRTPEVTCVVVDVSHEDPEVKFNWYVDGVEVHNAKTKPREEQYNSTYRVVSVLTVLHQDWLNGKEYKCKVSNKALPAPIEKTISKAKGQPREPQVYTLPPSRDELTKNQVSLTCLVKGFYPSDIAVEWESNGQPENNYKTTPPVLDSDGSFFLYSKLTVDKSRWQQGNVFSCSVMHEALHYHVTQKSLSLSP
# light: not shown
# B10: IL6R-BP087/IL6R-L (antibody, human IgG1)
# heavy: QVQLQESGPGLVKPSETLSLTCAVSGHSISHDHAWSWVRQPPGEGLEWIGFISYSGITNYNPSLQGRVTISRDNSKNTLYLQMNSLRAEDTAVYYCARSLARTTAMDYWGEGTLVTVSSASTKGPSVFPLAPSSKSTSGGTAALGCLVKDYFPEPVTVSWNSGALTSGVHTFPAVLQSSGLYSLSSVVTVPSSSLGTQTYICNVNHKPSNTKVDKKVEPKSCDKTHTCPPCPAPEYLGGDSVFLFPPKPKDTLMISRTPEVTCVVVDVSHEDPEVKFNWYVDGVEVHNAKTKPREEQYNSTYRVVSVLTVLHQDWLNGKEYKCKVSNKALPKPIEKTISKAKGQPREPQVYTLPPSRDELTKNQVSLTCLVKGFYPSDIAVEWESNGQPENNYKTTPPVLDSDGSFFLYSKLTVDKSRWQQGNVFSCSVMHEALHNHYTQESLSLSP
# light: DIQMTQSPSSLSASVGDRVTITCRASQDISSYLNWYQQKPGKAPKLLIYYTSRLHSGVPSRFSGSGSGTDFTFTISSLQPEDIATYYCQQGNTLPYTFGQGTKVEIK
# notes: copies: 2 + 2
# Legend:
# human FcγRIa = target: T5, human FcγRIa (human, UniProt P12314 16-292, limits assumed); assay: SPR (Biacore), antibody captured on chip, FcγR as analyte, HBS-EP+, 25°C;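 further: FcγR binding response divided by the amount of captured antibody, then expressed relative to the reference antibody ×100, with antibodies captured via immobilized Protein A, A/G, L or antigen peptides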
# T5 construct: Analyte in solution on Biacore; also called FcgRIa; hFcgRIa
# T5 sequence (P12314 16-292 limits assumed): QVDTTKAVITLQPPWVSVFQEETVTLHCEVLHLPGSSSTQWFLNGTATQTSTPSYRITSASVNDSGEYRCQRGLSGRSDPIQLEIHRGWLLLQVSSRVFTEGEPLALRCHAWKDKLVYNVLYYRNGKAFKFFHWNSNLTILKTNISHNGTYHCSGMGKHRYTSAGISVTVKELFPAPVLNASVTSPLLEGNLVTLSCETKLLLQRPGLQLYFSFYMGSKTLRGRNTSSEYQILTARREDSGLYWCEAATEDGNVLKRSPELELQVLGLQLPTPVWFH
# Method: (§1) Interaction between each modified antibody and Fcγ receptor prepared in the manner described above was analyzed using the Biacore T100 (GE Healthcare), Biacore T200 (GE Healthcare), Biacore A100 or Biacore 4000. HBS-EP+ (GE Healthcare) was used for the running buffer, and measurements were carried out at 25° C. The chips used were chips in which antigen peptides, Protein A (Thermo Scientific), Protein A/G (Thermo Scientific) or Protein L (ACTIGEN or BioVision) were immobilized on the Series S Sensor Chip CM5 (GE Healthcare) or Series S Sensor Chip CM4 (GE Healthcare) by amine coupling, or chips in which preliminarily biotinylated antigen peptides were allowed to interact and then immobilized on the Series S Sensor Chip SA (certified) (GE Healthcare). The target antibodies were captured on these sensor chips, Fcγ receptor diluted with the running buffer was allowed to interact, followed by measurement of the amount of bound antibody. The amounts bound were compared between antibodies. However, since the amount of Fcγ receptor bound depends on the amount of captured antibody, the values used for comparison were first corrected by dividing the amount of Fcγ receptor bound by the captured amount of each antibody. Through reaction with 10 mM glycine-HCl at pH 1.5, the sensor chips were regenerated by washing off antibody captured on the sensor chips and used repeatedly.
# (§2) Binding strength was evaluated according to the following method based on the results of analyzing the interaction with each FcγR. […] That value was then further multiplied by 100, and the resulting value was used as an indicator of relative binding activity to each FcγR.
# human FcγRIIa(R) = target: T1, human FcγRIIa(R); assay: as above
# Method: as §1, §2
# human FcγRIIa(H) = target: T2, human FcγRIIa(H); assay: as above
# Method: as §1, §2
# human FcγRIIb [1] = target: T3, human FcγRIIb; assay: as above
# Method: as §1, §2
# human FcγRIIIa(F) = target: T6, human FcγRIIIa(F) (human, UniProt P08637 17-208, limits assumed); assay: SPR (Biacore), antibody captured on Protein L, human FcgR as analyte, pH 7.4, 25 C; amount normalised to captured antibody
# T6 construct: also called hFcgRIIIa(F); allotype F158
# T6 sequence (P08637 other isoform, or with tags, fused parts or gaps limits assumed): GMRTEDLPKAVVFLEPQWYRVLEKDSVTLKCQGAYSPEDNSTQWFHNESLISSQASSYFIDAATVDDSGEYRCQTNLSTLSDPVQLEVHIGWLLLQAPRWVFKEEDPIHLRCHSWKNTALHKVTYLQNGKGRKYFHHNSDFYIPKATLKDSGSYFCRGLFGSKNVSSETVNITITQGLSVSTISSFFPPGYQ
# Method: Binding activity between the antibodies and human FcγRIa, FcγRIIa(H), FcγRIIa(R), FcγRIIb and FcγRIIIa(F) (hereinafter referred to as human FcγRs) was evaluated using the Biacore T100 or T200 (GE Healthcare). The antibodies being tested were captured by Protein L (ACTIGEN) that was immobilized in suitable amounts on the CM4 Sensor Chip (GE Healthcare) by amine coupling. Next, the diluted human FcγRs and a running buffer used as a blank were injected to allow interaction with the antibodies captured on the sensor chip. A buffer consisting of 20 mmol/L ACES, 150 mmol/L NaCl and 0.05% (w/v) Tween 20 (pH 7.4) was used for the running buffer, and this buffer was also used to dilute the human FcγRs. 10 mmol/L glycine-HCl (pH 1.5) was used to regenerate the sensor chip. All measurements were carried out at 25° C.
# Binding activity to human FcγRs can be represented by the relative binding activity to human FcγRs. Antibody was captured by Protein L, and the amount of change in a sensorgram before and after the antibody was captured was defined as X1. Next, human FcγRs were allowed to interact with the antibody, and the value obtained by subtracting binding activity of human FcγRs represented as the amount of change in a sensorgram before and after allowing the running buffer to interact with antibody captured by Protein L (ΔA2) from the value obtained by multiplying by 1500 the value obtained by dividing the binding activity of human FcγRs represented as the amount of change in a sensorgram before and after that interaction (ΔA1) by the captured amount (X) of each antibody, was divided by the captured amount of each antibody (X) followed by multiplying by 1500 to obtain the binding activity of the human FcγRs (Y) (Equation 2).
# human FcγRIIb [2] = target: T4, human FcγRIIb; assay: ratio of this variant's SPR KD for FcγRIIaH to its KD for FcγRIIb
# From the text: Furthermore, KD(IIaR)/KD(IIb) and KD(IIaH)/KD(IIb) in the table respectively represent the value obtained by dividing the KD value of each variant for FcγRIIaR by the KD value of each variant for FcγRIIb, and the value obtained by dividing the KD value of each variant for FcγRIIaH by the KD value of each variant for FcγRIIb.
Binder,BINDING AMOUNT (RU) (human FcγRIIIa(F)),further results
B1,,relative binding activity (% of GpH7-B3/GpL16-k0) (human FcγRIa): 77%; relative binding activity (% of GpH7-B3/GpL16-k0) (human FcγRIIa(R)): 12%; relative binding activity (% of GpH7-B3/GpL16-k0) (human FcγRIIa(H)): 59%; relative binding activity (% of GpH7-B3/GpL16-k0) (human FcγRIIb [1]): 27%
B2,-0.68 RU,
B3,-0.33 RU,
B4,-0.94 RU,
B5,-0.26 RU,
B6,-0.54 RU,
B7,-1.03 RU,
B8,-1.85 RU,
B9,-1.01 RU,
B10,,KD (IIaH)/KD (IIb) (human FcγRIIb [2]): 34.7

# Source: patent US20140105889A1 (published 2014)
